Values belong to the binder of their own block, whether it stands above or below them.
Experiments:
[1] = target: T1, cynomolgus monkey FcγRIIIaS extracellular domain, His-tagged (cynomolgus monkey, UniProt A3RFZ7 21-206 (rhesus entry)); assay: SPR (BIACORE), antibody captured on chip, soluble FcgR as analyte, 25 C
T1 construct: also called cyno FcgRIIIaS; cynoFcγRIIIaS; not shown: His-tag added to the C-terminus
Procedure: (§1) The kinetic analysis of interactions between these antibodies and FcγR was carried out using BIACORE® T200 or BIACORE® 4000 (GE Healthcare). HBS-EP+ (GE Healthcare) was used as the running buffer, and the measurement temperature was set to 25° C. […] After the measurement, the antibody captured on the chip was washed off by allowing reaction with 10 mM glycine-HCl, pH1.5 and 25 mM NaOH so that the chip was regenerated and used repeatedly. The sensorgrams obtained as measurement results were analyzed by the 1:1 Langmuir binding model using the BIACORE® Evaluation Software to calculate the binding rate constant ka (L/mol/s) and dissociation rate constant kd (1/s), and the dissociation constant KD (mol/L) was calculated from these values. […] Regarding such interactions, KD values were calculated using the following 1:1 binding model described in BIACORE® T100 Software Handbook BR1006-48 Edition AE.

[2] = target: T2, human FcγRIIIaV extracellular domain, His-tagged (human, UniProt P08637 17-208); assay: as above
T2 construct: also called human FcgRIIIaV; not shown: His-tag added to the C-terminus
T2 sequence (P08637 17-208 F176V): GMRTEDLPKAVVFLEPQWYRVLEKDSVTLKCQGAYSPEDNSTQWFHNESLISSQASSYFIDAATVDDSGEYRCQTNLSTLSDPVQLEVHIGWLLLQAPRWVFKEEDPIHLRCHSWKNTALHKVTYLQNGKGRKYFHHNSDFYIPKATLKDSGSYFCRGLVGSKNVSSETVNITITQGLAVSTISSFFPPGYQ
Procedure: as §1

[3] = target: T3, human FcγRIIaR extracellular domain, His-tagged (human, UniProt P12318 34-217); assay: SPR (BIACORE); KD of SG1 divided by KD of the variant
T3 construct: also called human FcgRIIaR; FcγRIIa (type R); not shown: His-tag added to the C-terminus
T3 chain: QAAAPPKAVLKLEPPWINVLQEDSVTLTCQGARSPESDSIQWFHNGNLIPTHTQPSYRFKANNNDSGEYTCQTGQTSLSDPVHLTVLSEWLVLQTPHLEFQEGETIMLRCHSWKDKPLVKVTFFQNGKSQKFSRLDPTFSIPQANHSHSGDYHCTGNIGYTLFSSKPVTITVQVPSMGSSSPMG
Procedure: as §1

[4] = target: T4, cynomolgus monkey FcγRIIa3 extracellular domain, His-tagged (cynomolgus monkey); assay: as above
T4 construct: also called cyno FcgRIIa3; cynoFcγRIIa3; not shown: His-tag added to the C-terminus
T4 chain: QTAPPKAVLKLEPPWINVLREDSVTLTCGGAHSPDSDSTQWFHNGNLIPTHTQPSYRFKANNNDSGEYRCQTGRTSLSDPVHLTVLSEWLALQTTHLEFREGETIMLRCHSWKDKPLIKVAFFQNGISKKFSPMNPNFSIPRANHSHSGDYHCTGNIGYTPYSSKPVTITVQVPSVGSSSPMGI
Procedure: as §1

[5] = target: T5, human FcγRIIaH extracellular domain, His-tagged (human, UniProt P12318 34-217); assay: as above
T5 construct: also called human FcgRIIaH; FcγRIIa (type H); not shown: His-tag added to the C-terminus
T5 sequence: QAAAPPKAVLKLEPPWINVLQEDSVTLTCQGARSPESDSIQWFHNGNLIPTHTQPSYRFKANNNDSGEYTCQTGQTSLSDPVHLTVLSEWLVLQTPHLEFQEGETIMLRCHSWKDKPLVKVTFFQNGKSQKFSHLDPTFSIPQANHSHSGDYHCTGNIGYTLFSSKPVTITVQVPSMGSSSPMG
Procedure: as §1

[6] = target: T4, cynomolgus monkey FcγRIIa3 …; assay: SPR (BIACORE), antibody captured on chip, soluble FcgR as analyte, 25 C
Procedure: as §1

[7] = target: T2, human FcγRIIIaV extracellular domain, …; assay: SPR (BIACORE); KD of SG1 divided by KD of the variant
Procedure: as §1

[8] = target: T6, human FcγRIIb extracellular domain, His-tagged (human, UniProt P31994 43-217); assay: SPR (BIACORE), antibody captured on chip, soluble FcgR as analyte, 25 C
T6 construct: also called human FcgRIIb; not shown: His-tag added to the C-terminus
T6 sequence: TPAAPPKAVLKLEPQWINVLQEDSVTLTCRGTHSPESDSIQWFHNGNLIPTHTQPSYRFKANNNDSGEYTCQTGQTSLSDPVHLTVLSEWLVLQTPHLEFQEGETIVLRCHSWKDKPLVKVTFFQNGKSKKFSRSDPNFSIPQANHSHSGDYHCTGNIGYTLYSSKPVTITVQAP
Procedure: as §1

[9] = target: T7, cynomolgus monkey FcγRIIb extracellular domain, His-tagged (cynomolgus monkey); assay: as above
T7 construct: also called cyno FcgRIIb; cynoFcγRIIb; not shown: His-tag added to the C-terminus
T7 chain: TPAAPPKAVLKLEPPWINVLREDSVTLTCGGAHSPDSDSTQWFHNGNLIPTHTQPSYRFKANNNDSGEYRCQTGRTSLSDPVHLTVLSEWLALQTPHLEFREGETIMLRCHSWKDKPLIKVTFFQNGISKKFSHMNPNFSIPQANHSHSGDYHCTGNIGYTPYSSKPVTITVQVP
Procedure: as §1

[10] = target: T5, human FcγRIIaH extracellular domain, …; assay: as above
Procedure: as §1

[11] = target: T8, cynomolgus monkey FcγRIIa1 extracellular domain, His-tagged (cynomolgus monkey); assay: SPR (BIACORE); KD of SG1 divided by KD of the variant
T8 construct: also called cyno FcgRIIa1; cynoFcγRIIa1; not shown: His-tag added to the C-terminus
T8 chain: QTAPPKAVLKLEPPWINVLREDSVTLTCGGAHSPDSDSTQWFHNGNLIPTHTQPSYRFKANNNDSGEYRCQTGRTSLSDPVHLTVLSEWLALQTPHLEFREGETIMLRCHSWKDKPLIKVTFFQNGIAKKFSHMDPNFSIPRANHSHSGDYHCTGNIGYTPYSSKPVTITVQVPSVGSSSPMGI
Procedure: as §1

[12] = target: T8, cynomolgus monkey FcγRIIa1 …; assay: SPR (BIACORE), antibody captured on chip, soluble FcgR as analyte, 25 C
Procedure: as §1

[13] = target: T1, cynomolgus monkey FcγRIIIaS …; assay: SPR (BIACORE); KD of SG1 divided by KD of the variant
Procedure: as §1

[14] = target: T6, human FcγRIIb extracellular domain, …; assay: as above
Procedure: as §1

T1 sequence (A3RFZ7 21-206): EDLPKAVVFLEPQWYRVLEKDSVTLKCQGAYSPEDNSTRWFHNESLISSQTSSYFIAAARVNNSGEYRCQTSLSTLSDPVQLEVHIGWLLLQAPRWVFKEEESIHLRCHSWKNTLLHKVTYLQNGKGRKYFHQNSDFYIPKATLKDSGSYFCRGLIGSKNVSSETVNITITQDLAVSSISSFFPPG

B1: M103205H795-MY260/M103202L889-SK1 (antibody)
heavy: QVTLKESGPVLVKPTETLTLTCTVSGIDLSHDDISWVRQAPGKGLEWVGIISYAGSTYYASWAKGRLTISKDTSKNQVVLTMTNMDPVDTATYYCARGVPAYSHGGDLWGQGTLVTVSSASTKGPSVFPLAPSSKSTSGGTAALGCLVKDYFPEPVTVSWNSGALTSGVHTFPAVLQSSGLYSLSSVVTVPSSSLGTQTYICNVNHKPSNTKVDKKVEPKSCDKTHTCPPCPAPELLMGPSVFLFPPKPKDTLMISRTPEVTCVVVDVSDEDPEVKFNWYVDGVEVHNAKTKPREEQYNSTYRVVSVLTVLHQDWLNGKEYKCKVSNKALPKPIEKTISKAKGQPREPQVYTLPPSREEMTKNQVSLTCLVKGFYPSDIAVEWESNGQPENNYKTTPPVLDSDGSFFLYSKLTVDKSRWQQGNVFSCSVMHEALHNHYTQKSLSLSP
light: DIVMTQSPATLSLSPGERATLSCTSSQSVYHANWLSWFQQKPGQPPKLLIYWASTLAYGVPSRFSGSGSGTDFTLTISSLQPEDAATYYCAGGYGGGRYAFGQGTKVEIKRTVAAPSVFIFPPSDEQLKSGTASVVCLLNNFYPREAKVQWKVDNALQSGNSQESVTEQDSKDSTYSLSSTLTLSKADYEKHKVYACEVTHQGLSSPVTKSFNRGEC
Kd [1]: 0.85 µM
Kd [2]: 30 µM
KD fold (SG1 = 1) [3]: 0.5 fold
KD fold (SG1 = 1) [4]: 1.7 fold
KD fold (SG1 = 1) [5]: 0.7 fold

B4: M103205H795-MY262/M103202L889-SK1 (antibody, human IgG1, kappa, name in EU numbering)
heavy: QVTLKESGPVLVKPTETLTLTCTVSGIDLSHDDISWVRQAPGKGLEWVGIISYAGSTYYASWAKGRLTISKDTSKNQVVLTMTNMDPVDTATYYCARGVPAYSHGGDLWGQGTLVTVSSASTKGPSVFPLAPSSKSTSGGTAALGCLVKDYFPEPVTVSWNSGALTSGVHTFPAVLQSSGLYSLSSVVTVPSSSLGTQTYICNVNHKPSNTKVDKKVEPKSCDKTHTCPPCPAPELLVGPSVFLFPPKPKDTLMISRTPEVTCVVVDVSDEDPEVKFNWYVDGVEVHNAKTKPREEQYNSTYRVVSVLTVLHQDWLNGKEYKCKVSNKALPKPIEKTISKAKGQPREPQVYTLPPSREEMTKNQVSLTCLVKGFYPSDIAVEWESNGQPENNYKTTPPVLDSDGSFFLYSKLTVDKSRWQQGNVFSCSVMHEALHNHYTQKSLSLSP
light: DIVMTQSPATLSLSPGERATLSCTSSQSVYHANWLSWFQQKPGQPPKLLIYWASTLAYGVPSRFSGSGSGTDFTLTISSLQPEDAATYYCAGGYGGGRYAFGQGTKVEIKRTVAAPSVFIFPPSDEQLKSGTASVVCLLNNFYPREAKVQWKVDNALQSGNSQESVTEQDSKDSTYSLSSTLTLSKADYEKHKVYACEVTHQGLSSPVTKSFNRGEC
notes: Asn at EU 236 of MY201 replaced with Val
Kd [6]: 80 µM
Kd [12]: 1.5 µM
KD fold (SG1 = 1) [13]: 0.35 fold
KD fold (SG1 = 1) [14]: 0.3 fold

Further lines, results first:

Kd [6]: 73 µM
KD fold (SG1 = 1) [7]: 0.39 fold
B2: M103205H795-MY263/M103202L889-SK1 (antibody, human IgG1, kappa, name in EU numbering)
heavy: QVTLKESGPVLVKPTETLTLTCTVSGIDLSHDDISWVRQAPGKGLEWVGIISYAGSTYYASWAKGRLTISKDTSKNQVVLTMTNMDPVDTATYYCARGVPAYSHGGDLWGQGTLVTVSSASTKGPSVFPLAPSSKSTSGGTAALGCLVKDYFPEPVTVSWNSGALTSGVHTFPAVLQSSGLYSLSSVVTVPSSSLGTQTYICNVNHKPSNTKVDKKVEPKSCDKTHTCPPCPAPELLQGPSVFLFPPKPKDTLMISRTPEVTCVVVDVSDEDPEVKFNWYVDGVEVHNAKTKPREEQYNSTYRVVSVLTVLHQDWLNGKEYKCKVSNKALPKPIEKTISKAKGQPREPQVYTLPPSREEMTKNQVSLTCLVKGFYPSDIAVEWESNGQPENNYKTTPPVLDSDGSFFLYSKLTVDKSRWQQGNVFSCSVMHEALHNHYTQKSLSLSP
light: DIVMTQSPATLSLSPGERATLSCTSSQSVYHANWLSWFQQKPGQPPKLLIYWASTLAYGVPSRFSGSGSGTDFTLTISSLQPEDAATYYCAGGYGGGRYAFGQGTKVEIKRTVAAPSVFIFPPSDEQLKSGTASVVCLLNNFYPREAKVQWKVDNALQSGNSQESVTEQDSKDSTYSLSSTLTLSKADYEKHKVYACEVTHQGLSSPVTKSFNRGEC
notes: Asn at EU 236 of MY201 replaced with Gln

Kd [8]: 22 µM
Kd [9]: 0.26 µM
Kd [10]: 0.15 µM
KD fold (SG1 = 1) [4]: 2.1 fold
KD fold (SG1 = 1) [11]: 0.8 fold
B3: M103205H795-MY264/M103202L889-SK1 (antibody, human IgG1, kappa, name in EU numbering)
heavy: QVTLKESGPVLVKPTETLTLTCTVSGIDLSHDDISWVRQAPGKGLEWVGIISYAGSTYYASWAKGRLTISKDTSKNQVVLTMTNMDPVDTATYYCARGVPAYSHGGDLWGQGTLVTVSSASTKGPSVFPLAPSSKSTSGGTAALGCLVKDYFPEPVTVSWNSGALTSGVHTFPAVLQSSGLYSLSSVVTVPSSSLGTQTYICNVNHKPSNTKVDKKVEPKSCDKTHTCPPCPAPELLLGPSVFLFPPKPKDTLMISRTPEVTCVVVDVSDEDPEVKFNWYVDGVEVHNAKTKPREEQYNSTYRVVSVLTVLHQDWLNGKEYKCKVSNKALPKPIEKTISKAKGQPREPQVYTLPPSREEMTKNQVSLTCLVKGFYPSDIAVEWESNGQPENNYKTTPPVLDSDGSFFLYSKLTVDKSRWQQGNVFSCSVMHEALHNHYTQKSLSLSP
light: DIVMTQSPATLSLSPGERATLSCTSSQSVYHANWLSWFQQKPGQPPKLLIYWASTLAYGVPSRFSGSGSGTDFTLTISSLQPEDAATYYCAGGYGGGRYAFGQGTKVEIKRTVAAPSVFIFPPSDEQLKSGTASVVCLLNNFYPREAKVQWKVDNALQSGNSQESVTEQDSKDSTYSLSSTLTLSKADYEKHKVYACEVTHQGLSSPVTKSFNRGEC
notes: Asn at EU 236 of MY201 replaced with Leu

Reference: patent US20250076311A1 (Chugai, published 2025)
